Experimental data: paper PMC2779236 (The Journal of Cell Biology, 2009)
Read-outs that look alike come from different tables or passages of the source.

T1: rat CEACAM1 D(1–4)-Fc fusion protein (rat, UniProt P16573 35-425)
T1 sequence (looked up): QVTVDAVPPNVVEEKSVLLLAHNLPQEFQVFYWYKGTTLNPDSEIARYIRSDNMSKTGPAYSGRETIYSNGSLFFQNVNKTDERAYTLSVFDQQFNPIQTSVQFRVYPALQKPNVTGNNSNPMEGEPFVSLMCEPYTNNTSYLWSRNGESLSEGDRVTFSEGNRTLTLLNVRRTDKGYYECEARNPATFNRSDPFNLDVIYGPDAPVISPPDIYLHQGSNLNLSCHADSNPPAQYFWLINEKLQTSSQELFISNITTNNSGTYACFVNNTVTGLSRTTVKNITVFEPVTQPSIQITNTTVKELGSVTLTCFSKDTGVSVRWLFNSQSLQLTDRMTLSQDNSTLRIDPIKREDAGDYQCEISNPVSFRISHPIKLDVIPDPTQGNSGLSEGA

B1: rat CEACAM1 D(1–4)-His ectodomain (domain or fragment, UniProt P16573 35-425, looked up)
chain: T1 sequence (looked up)
modifications: glycosylated (polydisperse, varying degrees of glycosylation; average molecular mass 81 kD)

Assays:
[1] = target: rat CEACAM1 D(2–4)-His ectodomain (rat); experiment: cross-linking
[2] = target: T1, rat CEACAM1 D(1–4)-Fc fusion protein; experiment: SPR
[3] = target: the molecule itself; experiment: molecular electron tomography
[4] = target: the molecule itself; experiment: molecular electron tomography; remark: listed apart in the source

Molecule | fold lower percentage of cross-linked dimers than D(1–4) [1] [fold lower] | Kd [2] [µM] | koff [2] [s⁻¹] | kon [2] [M⁻¹ s⁻¹] | KD monomer/A-dimer [3] [µM] | KD monomer/C-dimer [3] [µM] | KD monomer/A-dimer [4] [µM] | KD monomer/C-dimer [4] [µM]
rat CEACAM1 D(2–4)-His ectodomain (domain or fragment) | 4 | – | – | – | – | – | – | –
B1 | – | 11.2 | 0.508 ± 0.0078 | 45300 ± 3600 | 113 | 43.8 | 260 | 72.1
